We go through one molecule from publication PMC11358013, “FANCD2–FANCI surveys DNA and recognizes double- to single-stranded junctions” (Nature, 2024).

For test [1], the target named is T1, ybbR-tagged full-length Gallus gallus FANCD2 labelled with Cy3 (Gallus gallus, UniProt Q68Y81 1-1439, modified Cy3 (LD555-CoA) conjugated to the carboxyl-terminal ybbR tag).
T1 construct: FANCD2, Gallus gallus, codon-optimized full-length construct; also called FANCD2-Cy3; FANCD2-ybbR; source: Sf9, purified (Strep-Tactin, heparin, Superdex 200), labelled with SFP synthase and gel filtered
The test can be described thus: single-molecule two-colour confocal imaging on optically trapped DNA; 5 nM labelled D2–I loaded on λ DNA held between beads, imaged in the protein-free channel; 20 mM HEPES pH 7.5, 75 mM NaCl, 0.5 mg/ml BSA, 1 mM TCEP; 22 °C. As to conditions: both partners purified.

Test [2] deals with T2, Cy3 labelled monoubiquitinated Gallus gallus FANCD2_ybbR (Gallus gallus | , UniProt Q68Y81 1-1439; P0CG48 1-76, monoubiquitinated with His-tagged ubiquitin; Cy3 (LD555-CoA) conjugated to the ybbR tag | joined to a lysine of FANCD2).
T2 construct: FANCD2, Gallus gallus, full-length ybbR-tagged construct as in m3; ubiquitin, His-tagged, bought from Enzo Life Sciences; also called ubFANCD2; ubFANCD2_ybbR; copies: 1 + 1
In words: single-molecule two-colour confocal imaging on optically trapped DNA; ubD2–I formed by incubating purified ubFANCD2 and FANCI with relaxed, optically trapped λ DNA (less than 1 pN), then moved to the protein-free channel; kymographs at 15 pN. Particulars: both partners purified.

B1: ybbR-tagged full-length Gallus gallus FANCI labelled with Cy5 (natural protein, UniProt B0I564 1-1338, looked up)
chain: MAQRILQLAAEGSPERLQEALQGLTEGELGDMVTRQALRGRETAALLKGIFKGSPCSQQSGVLRRLQVYKHCVSLVESGDLHVGKVSEIIGLLMLEARQLPGHALAELATLFVEVIKRGSLSNGKSLELFSTVLTALSNSKESLAYGKGELNGEEFKKQLINTLCSSKWDPQCVIHLANMFRDIPLSGEELQFVVEKVLRMFSKLDLQEIPPLVYQLLLLSAKGSKKTVLEGIISFFNQLDKRQKEEQRVPQSADLEVATVPLDQLRHVEGTVILHIVSAINLDQDIGEELIKHLKTEQQKDPGKALCPFSVSLLLSTAVKHRLQEQIFDFLKTSITRSCKDLQILQASKFLQDLCPQQYDVTAVILEVVKNSAFGWDHVTQGLVDLGFSLMESYEPKKSFGGKAAETNLGLSKMPAQQACKLGASILLETFKVHEPIRSDILEQVLNRVLTKAASPVSHFIDLLSNIVVSAPLVLQNSSSRVTETFDNLSFLPIDTVQGLLRAVQPLLKVSMSVRDSLILVLQKAIFSRQLDARKAAVAGFLLLLRNFKILGSLTSSQCSQAIGATQVQADVHACYNSAANEAFCLEILGSLRRCLSQQADVRLMLYEGFYDVLRRNSQLASSIMETLLSQIKQYYLPQQDLLPPLKLEGCIMAQGDQIFLQEPLAHLLCCIQHCLAWYKSTVHLCKGAEDEEEEEDVGFEQNFEEMLESVTRRMIKSELEDFELDKSADFSPSSGVGVKNNIYAIQVMGICEVLIEYNFKIGNFSKNKFEDVLGLFTCYNKLSEILKEKAGKNKSTLGNRIARSFLSMGFVSTLLTALFRDNAQSHEESLAVLRSSTEFMRYAVSVALQKVQQLEEMGQTDGPDGQNPEKMFQNLCKITRVLLWRYTSIPTAVEESGKKKGKSISLLCLEGLLRIFNTMQQLYAARIPQFLQALDITDGDAEEADINVTEKAAFQIRQFQRSLVNQLSSAEDDFNSKETQLLITILSTLSKLLDPGSQQFLQFLTWTVKICKENALEDLSCCKGLLTLLFSLHVLYKSPVSLLRELAQDIHACLGDIDQDVEIESRSHFAIVNVKTAAPTVCLLVLGQADKVLEEVDWLIKRLTILGSDTSEDSTQASNQTQALEKGVILQLGTLLTVFHELVQTALPAGSCVDSLLRSLSKTYAILTSLIKHYIQACRSTSNTVPGRLEKLVKLSGSHLTPQCYSFITYVQNIHSESLSFAEEKKKKKKEDETAVVSTVMAKVLRDTKPIPNLIFAIEQYEKFLIHLSKKSKVNLMQYMKLSTSRDFRINASMLDSVLQEQNTEDAENEPDNNQSGTAEQPDENQEPQKKRRRKK
modifications: modified Cy5 (LD655-CoA) conjugated to the carboxyl-terminal ybbR tag
notes: FANCI, Gallus gallus, full-length; C-terminal extension with a 3C protease site and 6xHis-tag before the ybbR tag; also called FANCI-Cy5; FANCI-ybbR; source: Sf9, purified (HisTrap, heparin, Superdex 200), labelled with SFP synthase and gel filtered
Take B1: the binding result in test [1] and in test [2] was “binds” each time.
